Results published in patent US20150344580A1.

How the values were obtained:
[1] = target: human CCR7-CHO cells (UniProt P32248); test: FACS binding to CCR7-CHO cells
[2] = target: human chemokine receptor CCR7 (UniProt P32248); test: flow cytometry, human CCR7 cells (summary table)
[3] = target: human chemokine receptor CCR7 (UniProt P32248); test: cell-based or functional assay
[4] = target: mouse CCR7 (mouse) (UniProt P47774); test: flow cytometry, mouse CCR7 cells (summary table)
[5] = target: CCR7 (CCL-AAT) (UniProt P32248); test: cell binding; CLL-AAT cells
[6] = target: CCR7 (JVM-13) (UniProt P32248); test: cell binding; JVM-13 cells
Chain of CCR7 (JVM-13) (P32248 25-378): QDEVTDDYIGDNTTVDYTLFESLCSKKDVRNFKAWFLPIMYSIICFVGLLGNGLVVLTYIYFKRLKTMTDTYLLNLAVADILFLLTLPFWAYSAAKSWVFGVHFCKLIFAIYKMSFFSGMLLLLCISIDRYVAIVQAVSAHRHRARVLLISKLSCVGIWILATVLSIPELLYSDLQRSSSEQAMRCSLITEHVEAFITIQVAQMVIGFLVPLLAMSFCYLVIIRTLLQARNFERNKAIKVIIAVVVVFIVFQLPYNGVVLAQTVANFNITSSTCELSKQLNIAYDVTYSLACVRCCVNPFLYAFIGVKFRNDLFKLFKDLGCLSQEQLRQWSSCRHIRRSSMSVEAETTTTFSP

Chain of human chemokine receptor CCR7 (P32248 25-378 limits assumed): as the sequence (P32248 25-378) above
Chain of human CCR7-CHO cells (P32248 25-378): as above
Chain of mouse CCR7 (mouse) (P47774 25-378): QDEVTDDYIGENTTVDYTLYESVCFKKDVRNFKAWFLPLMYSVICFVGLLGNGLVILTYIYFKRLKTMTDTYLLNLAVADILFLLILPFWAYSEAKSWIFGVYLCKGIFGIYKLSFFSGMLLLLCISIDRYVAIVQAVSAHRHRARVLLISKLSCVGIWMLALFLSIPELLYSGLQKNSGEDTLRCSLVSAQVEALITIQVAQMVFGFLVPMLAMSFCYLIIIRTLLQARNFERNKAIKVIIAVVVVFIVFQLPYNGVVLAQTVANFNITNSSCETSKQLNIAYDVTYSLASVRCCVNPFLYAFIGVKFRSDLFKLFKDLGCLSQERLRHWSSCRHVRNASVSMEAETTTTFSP
Chain of CCR7 (CCL-AAT) (P32248 25-378): as the sequence (P32248 25-378) above

How did the EC50 [1] turn out when IgG 3D12 eBioscience was run?
Its EC50 is 3.2 nM.

What does the source list for “Mouse monoclonal IgG2A anti-human CCR7, clone 150503 (R&D Systems MAB197) (antibody)”?
EC50 [2]: 6.9 nM; IC50 of inhibition of Ca-flux induced by 15 nM CCL19, Chem-1 CCR7 human cells [3]: 10 nM; inhibition of chemotaxis of CLL-AAT cells toward 30 nM CCL19, 500 nM IgG [3]: 60%

IgG 150503 R&D Systems was tested. Which EC50 [1] did it give?
Its EC50 is 5.9 nM.

How did the EC50 [4] turn out when “Rat IgG2A anti-mouse CCR7, clone 4B12 (R&D Systems MAB3477) (antibody)” was run?
The EC50 was 73.5 nM.

How did the Kd [5] turn out when MAB197 was run?
Its Kd is 27 nM.

And the Kd [6]?
Its Kd is 20 nM.

“IgG 3D12 (eBioscience), anti-human CCR7 control (antibody)” was tested. Which EC50 [2] did it give?
The EC50 was 3.4 nM.
